The record followed here is patent US20200377551A1 (WAKE FOREST UNIVERSITY HEALTH SCIENCES, published 2020).

This test concerns the target T1, Tom20 (UniProt Q15388 1-145).
T1 construct: Endogenous mitochondrial protein used as a specificity control in the MAVS co-IP
T1 sequence (looked up): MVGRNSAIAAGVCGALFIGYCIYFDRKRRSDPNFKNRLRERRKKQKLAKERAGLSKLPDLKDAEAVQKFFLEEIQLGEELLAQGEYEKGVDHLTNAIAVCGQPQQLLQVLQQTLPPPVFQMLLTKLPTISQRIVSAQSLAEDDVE
Kind of test: co-immunoprecipitation with MAVS antibody from HEK293 lysates, immunoblot (FIG. 2E).

B1: mitochondrial antiviral-signaling protein (MAVS) (other)
chain: MPFAEDKTYKYICRNFSNFCNVDVVEILPYLPCLTARDQDRLRATCTLSGNRDTLWHLFNTLQRRPGWVEYFIAALRGCELVDLADEVASVYESYQPRTSDRPPDPLEPPSLPAERPGPPTPAAAHSIPYNSCREKEPSYPMPVQETQAPESPGENSEQALQTLSPRAIPRNPDGGPLESSSDLAALSPLTSSGHQEKDTELGSTHTAGATSSLTPSRGPVSPSVSFQPLARSTPRASRLPGPTGSVVSTGTSFSSSSPGLASAGAAEGKQGAESDQAEPIICSSGAEAPANSLPSKVPTTLMPVNTVALKVPANPASVSTVPSKLPTSSKPPGAVPSNALTNPAPSKLPINSTRAGMVPSKVPTSMVLTKVSASTVPTDGSSRNEETPAAPTPAGATGGSSAWLDSSFENRGLGSELSKPGVLASQVDSPFSGCFEDLAISASTSLGMGPCHGPEENEYKSEGTFGIHVAENPSIQLLEGNPGPPADPDGGPRPQADRKFQEREVPCHRPSPGALWLQVAVTGVLVVTLLVVLYRRRLH
notes: Endogenous full-length MAVS in HEK293 lysates or on isolated mitochondria; also called MAVS protein
Consider B1, for which the binding result is given as “no binding”.
